Data taken from PMC7966745, “Elucidation of transient protein-protein interactions within carrier protein-dependent biosynthesis” (Communications Biology, 2021).

Target: T1, octanoyl-AcpP (C8-AcpP), E. coli acyl carrier protein (E. coli, UniProt P0A6A8 2-78, octanoyl pantethenamide probe loaded (stable C8 acyl analog); uniformly 15N labeled and perdeuterated)
T1 construct: acyl carrier protein AcpP, E. coli; PDB 2FAD is heptanoyl-AcpP, used for docking only; also called 15N-C8-AcpP; source: E. coli BL21 (DE3), M9 minimal media with 15N NH4Cl and D2O, purified; made apo with P. aeruginosa ACPH, then loaded with CoaA, CoaD, CoaE and Sfp
Assay: NMR titration; 1H-15N HSQC of 15N, perdeuterated C8-AcpP titrated with unlabeled partner, at least five points; 37 °C; 10 mM potassium phosphate pH 7.4, 0.5 mM TCEP, 0.1% NaN3; TITAN 2D lineshape analysis, flexible stoichiometry model
Settings: both partners purified

T1 sequence (P0A6A8 2-78): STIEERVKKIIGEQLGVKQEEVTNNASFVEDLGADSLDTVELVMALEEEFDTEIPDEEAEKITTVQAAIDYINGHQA

B1: FabF, E. coli elongating ketosynthase (enzyme)
chain: SKRRVVVTGLGMLSPVGNTVESTWKALLAGQSGISLIDHFDTSAYATKFAGLVKDFNCEDIISRKEQRKMDAFIQYGIVAGVQAMQDSGLEITEENATRIGAAIGSGIGGLGLIEENHTSLMNGGPRKISPFFVPSTIVNMVAGHLTIMYGLRGPSISIATACTSGVHNIGHAARIIAYGDADVMVAGGAEKASTPLGVGGFGAARALSTRNDNPQAASRPWDKERDGFVLGDGAGMLVLEEYEHAKKRGAKIYAELVGFGMSSDAYHMTSPPENGAGAALAMANALRDAGIEASQIGYVNAHGTSTPAGDKAEAQAVKTIFGEAASRVLVSSTKSMTGHLLGAAGAVESIYSILALRDQAVPPTINLDNPDEGCDLDFVPHEARQVSGMEYTLCNSFGFGGTNGSLIFKKI
notes: ketosynthase FabF (3-oxoacyl-ACP synthase 2), E. coli; also called KS; source: E. coli BL21 (DE3), purified (Ni-IMAC, Superdex 75)
With B1 the “stoichiometry N” value was about 1.
